In the DeepSol protein solubility set:

assay: soluble on expression in E. coli; label from the status in PepcDB or PDB records

Sequence | soluble on expression in E. coli
MGSDKIHHHHHHMDVTMGYFTIPKGPGDSTDARWYNAPGGRSIFLRPDNKGTTRAVLTLQAPIREAPESAQEQKRWLKERFADAGWEAPRVLDGLEDATDLYFDLLRQVRMKRWHKGRIALTGDAAWCATPLSGIGTTLAIVGAYVLAGELSKTHDIAQAFKCYENIMRPFVEKGQNVPKFGPRLMHPHSRLGVSFQRSALRFVSKPGIQKVLTKVAMPAADKVDLPDYQYHASS | not soluble
MGSDKIHHHHHHMDYRMCWLEYRGLPADVAGKLKDWFSSVSILEPGSSVLKDEIRRFSERSIGITPRFYSRPLKKEKYIMVGRLESLPIKLDVNLGEEGFMLRTIEWNGSKILLVTGETKKALVYGIFDLMKRIRLGEDIEKMNVLAKPKAKFRMLNHWDNLDGTIERGYAGNSIFFKDNRIIINQRTKDYARLLASIGINGVVINNVNVKKREVYLIDSIYLKKLKKLADIFREYGIKIYLSINFASPVYLGGLDTADPLDERVARWWREKARGIYDYIPDFGGFLVKADSEFNPGPHMFGRTHAEGANMLARALAPFGGVVIWRAFVYNCLQDWRDYKTDRAKAAYDNFKPLDGQFDDNVIIQIKYGPMDFQVREPVNPLFGGMEKTNQILELQITQEYTGQQIHLCFLGTLWKEILEFDTFAKGEGSYVKRIVDGTLFDRENNGFAGVSNVGDSVNWTGHDLAQANLYAFGRLAWNPDEEIERIVEEWIKLTFGDDEKVLENVSYMLMKSHRTYEKYTTPFGLGWMVNPGHHYGPNPEGYEYSKWGTYHRANWEAIGVDRTSRGTGYTLQYHSPWKEIYDDINTCPEDLLLFFHRVRYDHRLKSGKTLLQTMYDLHFEGVEEVEEFIKKWEELKDRVSPDIFERVKERLHMQLEHAKEWRDVINTYFYRRTGIPDEKGRKIYP | not soluble
MGSDKIHHHHHHMEDIIVVENLVKKFGDFEAVKGVSFSVKKGEIFAFLGPNGAGKTTTIHMLTTLLKPTSGKAWVAGHDVLKEPREVRRKIGIVFQDQSLDRELTAYENMYIHGKIYGYGGEKLKKRILELLEFVELLEFKDKPVKTFSGGMARRLEIARSLIHEPEVLFLDEPTIGLDPHTRAHMWEYISKMKKEHNMTIFLTTHYMDEAEQLADRVAIIDHGKIIALGTPTELKRMVGKEIIYVRFSEAVECLEGDFIESCRKLPDGRLELNVEDSGRAIPKIFELAQQKGLKIEEITYHKPTLNDVFLHLTGRELREEGPENSFKTMARMRMRMRR | not soluble
MGSDKIHHHHHHMEEKLSDVKVSGSGSIGGGNYDEVKISGSAKINGNVNCNSYMCSGSSTANGNITAKEIVKISGTTKVHGDLNSGDLIVSGSSRTFGNVTAKKIKISGSSDIEGNVHTDSIDISGSVSIGEDCEAEHFHARGGFEIAGLLNAGDIEIYMYGKCRVKDIGGENITVKLGSGHFIHEMMNLFFTRGRLVTSIIEGDNIYLEHTDAKIVRGNNITIGPNCNIENIEYKNQLNMDQSCKALCKKVDE | not soluble
MGSDKIHHHHHHMEFIPPKRLLELIRQYSTTFENWHSVMLSIYLHKERIKCKLRNGQLLYLKPNEIVLLAGLKIVELNEDSVRFQFNGREICLKGWKLSYPGDSFSDYWRIDVRGKRVLDIGAGIGDSPIYFSIAGAKEVVAVEVDSKKVELMRENLKANSINNVIVVDKGVGIKDDENYISWPKLISNYGPFDVAKIDCDGCEKIIVPYIKEIPSLLIEWDYNYKDIVSNLTKNGYKVKVEHTLKNLGFIYAKKR | not soluble
MGSDKIHHHHHHMEITKRIEELREEMVESLKKFISINSVNPAFGGPGEKEKADWLEGLLRDFGFEVDRCDVRDDRGIWRSNIVAKIPGKNREKTLWIVTHIDTVPPGDLSLWETDPFVPVVKDGKVYGRGAEDNGGSMIASIYAGKALIDLGITPEYNFGLALVADEEAGSEYGIQYLIEKGLFSPEDMFLVPDAGNEKGDFIEIAEKSILWFKVMVNGKQGHASRPQTTENALRKGAHLITEIDEALHRKYSDRDELFDEPLSTFEPTRAEKTVDNVNTVPGRFVFYFDCRVLPRYNLDEVLSIVKSILDGRGAELEVVVKQPAPEPTPPDSELVVKLSNVLRSLRGLEAKVGGIGGGTCAAFFRKKGWPAVVWSTIDETAHQPNEYRRISHMVEDAKVFALLGTER | not soluble
MGSDKIHHHHHHMEKKIVYFNKPGRENTEETLRLAVERAKELGIKHLVVASSYGDTAMKALEMAEGLEVVVVTYHTGFVREGENTMPPEVEEELRKRGAKIVRQSHILSGLERSISRKLGGVSRTEAIAEALRSLFGHGLKVCVEITIMAADSGAIPIEEVVAVGGRSRGADTAVVIRPAHMNNFFDAEIKEIICMPRNKR | soluble
MGSDKIHHHHHHMEKKPLYHFMPGTMTWSFGTPGCNFKCANRQNWAISQMGQDKSIPLATPEAIVRNAMNTGCSSISCTYTEPTIFAEYALDVMQLARQTGLRNIWISNGYLSPLCLKTVTPWLDAINVGLQSMDDAFYRRVCGARLDPVLDSLRLIQESGMHLEITTLVIPGHSSDPAMLERLAGFIAHDLGTGVPWHIIPFYPEISWKMQDTPPTPAESIEQAFEIGRKAGLSFIYAGNAHSDTFCDQCSARLVGRKASPFGDYRIERFDTGGRCPVCHAPSPMRD | not soluble
MGSDKIHHHHHHMEKLQESMYQLIVETSTNLPKDVRRAIQQAKERENAGTRSAMALGTITNNIKMADDNISPICQDTGMPTFKIYTPVGVNQLKLKEAIYNALERATKDGKLRPNSVDSLFGDNSGNNLGPGTPVIKFEQWEKDYIDARLILKGGGCENKNIQYSLPCELEGLGRAGRDLEGIRKCLLHAVYQAQGQGCSAGVIGVGIGGDRTSGYELAKNQLFRTLDDVNPIPELQQLEEYVLENANKLGIGTMGFGGETTLLGCKIGVYNRLPASFYVSVAYNCWAYRRLGVTIHPETGEIMDWLYQEGEDTLEQEVQEKTEQREIVLQAPITEEQIRELRVGDVVTINGMMYTGRDAIHKHLMDNDCPVDLNGQIIYHCGPVVVKDENDNWQIKAAGPTTSIREEPYQGDIMKKFGIRAVIGKGGMGAKTLAALEEHGGVYLNAIGGAAQYYAECIKEVKDVDFLQFGIPEAMWHLRIDGFKAVVTMDSHGNSLHADVDKTSLEKLASFKEPVFK | not soluble
MGSDKIHHHHHHMELASSYDKHDIRYLSASEMAELRVTNVAANQSPADTSQVSTRPDPAPVPVPAPDARQQVESAAVAFVKDLIEHHGDNDDFALAQVQASYARTVDYYGKLTNLSSIIQDKRNYYRRWPERIYNVRNDSIVVTCANDRCMVSGIYDWVVRSPSIHKQDKGASNFSYTISTGPYPKIIAETSKVRS | not soluble
MGSDKIHHHHHHMELRHLRYFAATAEELNFTRAANRLHISQPAVSRLIKELECELGAQLFTRERFGLRLTAAGEKFLFYARRVLQDCEEGIRAVRENGLNHQKLTIGFISTAMESFLSDALVRLSQERPDIDVTVNEMSPGDQIAALRYRQIDLGFIGNPHDGAGDEFELYVLREVPLVAVLPVRHRLAGRSEICIGELEGDTFIGYLEDKFPGRNRVISTACARAGFRPKFELKAGSLIEVLGMIGTGKGVCLMPSDVAGLPHPNVAFIPLRDPLDPVRLAAAWLPGNTNPALHQLIAILAADCSSDTGRTSR | not soluble
MGSDKIHHHHHHMELSSPSKKTTTSPINIPGGNRDNLIIGPHSHSFKTDPFSSNNSSLLSKISTNPSLESPFSSKSLLDCSPVQAVKKSLESEAKTHSLDEETNEQTDVKILNIADFPTDELILMISALLNRIITANDETTDVSQQVSDETEDELLTPILAFYGKNVPEIAVVQYLERIQKYCPTTNDIFLSLLVYFDRISKNYGHSSERNGCAKQLFVMDSGNIHRLLITGVTICTKFLSDFFYSNSRYAKVGGISLQELNHLELQFLILCDFKLLVSVEEMQKYANLLYKFWNDQ | not soluble
MGSDKIHHHHHHMEMRFFVLGAGSWGTVFAQMLHENGEEVILWARRKEIVDLINVSHTSPYVEESKITVRATNDLEEIKKEDILVIAIPVQYIREHLLRLPVKPSMVLNLSKGIEIKTGKRVSEIVEEILGCPYAVLSGPSHAEEVAKKLPTAVTLAGENSKELQKRISTEYFRVYTCEDVVGVEIAGALKNVIAIAAGILDGFGGWDNAKAALETRGIYEIARFGMFFGADQKTFMGLAGIGDLMVTCNSRYSRNRRFGELIARGFNPLKLLESSNQVVEGAFTVKAVMKIAKENKIDMPISEEVYRVVYEGKPPLQSMRDLMRRSLKDEFWAS | soluble
MGSDKIHHHHHHMENAPEPIETVKKGKCKVECQNKERFILIEKENGKAMYHTKIMMDIYKFGVYEKKHEFRLSLRALFNGERIVEETHLYPIKEGDKFIGIFYGYRKPIKKPLIKYQINGTKKAYALARAYYMEFRFKAGSVFCYFKGLYRLLDKKRTNNHYNKVLFSMFTDLEQQVYKFYGKKYPEQGPLIKWILKNLK | not soluble
MGSDKIHHHHHHMENHTDIETLLTKYFEGNTTPPENEQIEAWLNADEEHLRIAKQLNTLYLAVDTQHITKKIDTEKALDKVKSRTKVRNLSWWGWTQRIAAILSVPLLIGVLALYPDRQQPVVTAQMVEIKTNAGMTTSVLLPDSTVVHLNSESSLRYPTFFAGDVRQVELNGEAYFDVTQHPRKRFIVSTPHHSQVEVYGTSFNVEAYGNETPISTTLIEGSVGFIYKNSKGKFQKSMLSPRQKLVYSPQTGDIKCYATSGESEISWKDGKLIFNDTPLDEVLHMLGKRFNVEFVLSNKGLKGCSFTGTFTHQRLERIMEYFRISSHIRWRYIDSADIKTEKLKIEVY | not soluble
MGSDKIHHHHHHMENKSAVQLYLELLKKTILFEIWLEYEPYLPASLHISKELSYEPVTVPLPLFLKQYVENHNLKIVNPNVSNNERQGGKDWPRAAHSMVGRKRMNQLQEAMETVVRENIEGDFIETGVWRGGSCIFMNGFLQANNIYYRTVWVADSFEGLPAPNLEQYPKDYGDYLHTFDYLRVSLETVQENFRKYDLLNDQVKFLKGWFKDTLPSAPVEKIAIARLDGDMYESTMDSLVNLYDKVSTGGFIIIDDYGLITCAEAVTDFRSERNIKTPMTQIDDFGIYWRKE | not soluble
MGSDKIHHHHHHMEPIIEIENFSAYYGEKIAVKNVTMKIFKNQITAIIGPSGCGKTTLLRSINRMNDHLPGFRVEGKIYFKGQDIYDPQLDVTEYRKRVGMVFQKPTPFPMSIYDNVAFGPRIHGVKSKHILDRIVEESLKKAALWDEVKSELNKSGTRLSGGQQQRLCIARALAVEPEVILLDEPTSALDPIATQRIEKLLEELSENYTIVIVTHNIGQAIRIADYIAFMYRGELIEYGPTREIVERPKNRLTEEYLTGKIG | not soluble
MGSDKIHHHHHHMEQLPILNLSDWHAGGQSRHAFITKLADAARRIGFFYLTGHGIELARQQQVLLLARDFFALPLADKLAVKMTNTPHFRGYTRLQGELTLGKPDLREQFDIMQEETANPPRSDVPKWSQLQGPNQWPSQLPQMKTILLEWQQDLADTSVALLKALAVALEQSETAFDATIDAGPYQHMKLIRYPNANGETSGQGVGAHKDPGYLTLVLQDKQSGLEVQTDEGWLSIPPLEGAFVVNIGELLELASNGYLKATYHRVTSPPAGVERYSCAFFMAAQLNATVPLLPLPEYLARQALGPASDPLNPLFHQVGQNVLKGRLRSHPDVAKAHYASFANAI | not soluble
MGSDKIHHHHHHMERFFIVGCGDIGKKVARIALADGAGVAALIRSPEKAESLREMGVTALEANLDERDSLAGMPTRGAVVFYFAPPPGGGVTDPRVRAFCDAIAPGEEPRKIVYLSTSGVYGDCGGDVVTEETPPNPQTSRARRRYDAETVFRQWGAERGVPVVILRVTGIYGPGRLPLQQLTSGQPVLEESLAPFTNRIHSEDLARICLAAAEHGEDGDIFNVSDGHPTTMTAYFDACADALGLPRPRRVTLEEARRVMTPLMFSYVTESRKMDNRLMREKLHVTLLYPTMQEGVRSSVA | not soluble
